Consider three substances from IntAct's records for PubMed 21642953.

One experiment concerns the target tbb2b_human TUBB2B (UniProt Q9BVA1).
The target in a further experiment is dcc_human DCC (UniProt P43146).
Sequence of dcc_human DCC (P43146 whole entry): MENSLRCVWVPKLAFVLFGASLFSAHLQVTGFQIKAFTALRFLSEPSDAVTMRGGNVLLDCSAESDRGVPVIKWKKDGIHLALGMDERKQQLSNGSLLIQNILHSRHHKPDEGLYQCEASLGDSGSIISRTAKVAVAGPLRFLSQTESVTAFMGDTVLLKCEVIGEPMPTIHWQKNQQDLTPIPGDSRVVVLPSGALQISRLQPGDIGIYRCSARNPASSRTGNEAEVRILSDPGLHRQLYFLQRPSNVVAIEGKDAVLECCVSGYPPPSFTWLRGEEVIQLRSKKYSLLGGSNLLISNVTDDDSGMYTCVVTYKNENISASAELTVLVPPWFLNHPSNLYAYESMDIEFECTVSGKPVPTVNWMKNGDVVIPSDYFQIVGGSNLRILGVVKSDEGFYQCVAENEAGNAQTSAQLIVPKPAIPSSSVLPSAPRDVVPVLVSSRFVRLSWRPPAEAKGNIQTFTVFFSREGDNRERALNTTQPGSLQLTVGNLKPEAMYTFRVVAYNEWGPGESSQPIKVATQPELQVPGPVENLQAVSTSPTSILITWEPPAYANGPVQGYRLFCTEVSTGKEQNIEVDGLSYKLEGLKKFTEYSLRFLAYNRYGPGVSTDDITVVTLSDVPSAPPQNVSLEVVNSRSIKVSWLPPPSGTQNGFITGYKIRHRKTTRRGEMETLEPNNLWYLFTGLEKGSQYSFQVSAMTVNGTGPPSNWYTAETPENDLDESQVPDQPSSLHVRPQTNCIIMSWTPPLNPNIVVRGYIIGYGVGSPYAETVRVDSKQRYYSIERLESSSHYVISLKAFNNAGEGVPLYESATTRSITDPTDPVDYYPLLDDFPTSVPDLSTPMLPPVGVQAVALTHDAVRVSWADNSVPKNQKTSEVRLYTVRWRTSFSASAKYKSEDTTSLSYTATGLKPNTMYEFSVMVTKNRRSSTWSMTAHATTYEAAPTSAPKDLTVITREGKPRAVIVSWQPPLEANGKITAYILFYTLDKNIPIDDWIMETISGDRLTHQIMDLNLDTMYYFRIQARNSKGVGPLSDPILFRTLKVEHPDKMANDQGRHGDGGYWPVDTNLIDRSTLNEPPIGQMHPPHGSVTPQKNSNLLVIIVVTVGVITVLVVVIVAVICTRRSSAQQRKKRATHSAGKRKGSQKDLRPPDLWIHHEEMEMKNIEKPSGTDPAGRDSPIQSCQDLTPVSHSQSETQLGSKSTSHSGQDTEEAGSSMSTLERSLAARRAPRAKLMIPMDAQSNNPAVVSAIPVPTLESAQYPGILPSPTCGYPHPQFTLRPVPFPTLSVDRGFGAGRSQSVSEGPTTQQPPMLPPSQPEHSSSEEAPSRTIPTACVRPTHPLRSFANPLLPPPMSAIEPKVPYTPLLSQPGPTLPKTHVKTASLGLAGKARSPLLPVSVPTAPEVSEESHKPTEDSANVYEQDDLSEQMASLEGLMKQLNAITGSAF

Sequence of tbb2b_human TUBB2B (Q9BVA1 whole entry): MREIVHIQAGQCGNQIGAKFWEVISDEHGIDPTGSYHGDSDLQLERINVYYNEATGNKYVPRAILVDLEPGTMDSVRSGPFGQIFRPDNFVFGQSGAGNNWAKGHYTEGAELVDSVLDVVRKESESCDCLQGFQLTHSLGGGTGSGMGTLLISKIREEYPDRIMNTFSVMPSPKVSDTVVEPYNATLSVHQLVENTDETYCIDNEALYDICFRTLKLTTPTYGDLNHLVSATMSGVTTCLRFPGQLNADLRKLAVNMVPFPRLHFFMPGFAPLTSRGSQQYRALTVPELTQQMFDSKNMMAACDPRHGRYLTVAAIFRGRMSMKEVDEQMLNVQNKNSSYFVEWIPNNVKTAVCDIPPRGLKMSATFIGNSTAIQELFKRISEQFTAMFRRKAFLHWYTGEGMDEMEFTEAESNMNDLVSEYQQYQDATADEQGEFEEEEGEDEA

Consider “Unconventional myosin-X (Homo sapiens), Q9HD67 K1650D”, for which the “effect of a mutation on the interaction” value in the experiment with tbb2b_human TUBB2B was “disrupting interaction”.
The same measure, in the same setting: as for “Unconventional myosin-X (Homo sapiens), Q9HD67 K1647D”, the entry is “disrupting interaction”.
As to “Unconventional myosin-X (Homo sapiens), Q9HD67 F2002K”, the “effect of a mutation on the interaction” value with dcc_human DCC is “disrupting interaction”.
